From patent US20140178332A1 (published 2014) come the findings set out here.

Experiment [1] addresses T1, recombinant purified human IL-12 p70 (human, UniProt P29459 23-219).
T1 sequence 1: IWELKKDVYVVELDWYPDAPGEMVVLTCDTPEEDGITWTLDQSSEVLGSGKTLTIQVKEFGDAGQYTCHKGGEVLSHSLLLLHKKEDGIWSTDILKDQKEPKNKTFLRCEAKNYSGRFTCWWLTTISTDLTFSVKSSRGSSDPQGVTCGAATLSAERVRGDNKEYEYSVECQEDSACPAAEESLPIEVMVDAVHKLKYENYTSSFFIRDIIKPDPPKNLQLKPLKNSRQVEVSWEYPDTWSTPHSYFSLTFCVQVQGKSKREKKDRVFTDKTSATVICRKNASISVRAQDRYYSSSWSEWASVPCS
T1 sequence 2: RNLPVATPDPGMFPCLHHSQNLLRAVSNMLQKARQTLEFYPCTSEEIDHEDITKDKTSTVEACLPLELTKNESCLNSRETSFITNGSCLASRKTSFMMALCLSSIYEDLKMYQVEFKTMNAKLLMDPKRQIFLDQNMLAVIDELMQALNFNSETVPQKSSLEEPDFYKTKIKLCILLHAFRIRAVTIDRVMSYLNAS
The experiment can be described thus: cell-based or functional assay.

The target in experiment [2] is T2, recombinant purified cyno IL-12 p70 (cynomolgus monkey).
T2 chain 1: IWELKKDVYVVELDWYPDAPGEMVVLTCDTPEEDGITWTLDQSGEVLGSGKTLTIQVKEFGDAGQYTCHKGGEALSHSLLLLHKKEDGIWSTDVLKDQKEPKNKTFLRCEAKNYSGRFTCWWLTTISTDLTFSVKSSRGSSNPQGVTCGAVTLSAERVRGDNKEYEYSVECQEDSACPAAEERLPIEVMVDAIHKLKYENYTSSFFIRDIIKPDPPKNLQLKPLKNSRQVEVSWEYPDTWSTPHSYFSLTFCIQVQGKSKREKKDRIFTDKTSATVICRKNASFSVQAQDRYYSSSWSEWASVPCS
T2 chain 2: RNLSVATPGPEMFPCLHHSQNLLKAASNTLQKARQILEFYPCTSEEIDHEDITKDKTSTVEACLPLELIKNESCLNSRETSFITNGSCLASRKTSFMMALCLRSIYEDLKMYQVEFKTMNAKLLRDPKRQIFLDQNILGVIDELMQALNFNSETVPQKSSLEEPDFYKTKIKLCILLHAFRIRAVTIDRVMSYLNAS
Nature of the experiment: cell-based or functional assay.

Experiment [3] concerns the target T1, recombinant purified human IL-12 p70. Nature of the experiment: cell-based or functional assay. This is another data set of the same source.
Experiment [4] concerns the target T2, recombinant purified cyno IL-12 p70. The experiment can be described thus: cell-based or functional assay.
For experiment [5], the target named is T1, recombinant purified human IL-12 p70. The experiment can be described thus: SPR (BIAcore) as in Example 1.1.B. The protocol:
(§1) The BIACORE assay (Biacore, Inc, Piscataway, N.J.) determines the affinity of antibodies with kinetic measurements of on-, off-rate constants. Binding of antibodies to recombinant purified human IL-12 p70 or recombinant purified human IL-12 p40 were determined by surface plasmon resonance-based measurements with a Biacore® 3000 instrument (Biacore® AB, Uppsala, Sweden) using running HBS-EP (10 mM HEPES [pH 7.4], 150 mM NaCl, 3 mM EDTA, and 0.005% surfactant P20) at 25° C. All chemicals were obtained from Biacore® AB (Uppsala, Sweden) or otherwise from a different source as described in the text. Approximately 5000 RU of goat anti-mouse IgG, (Fcγ), fragment specific polyclonal antibody (Pierce Biotechnology Inc, Rockford, Ill.) diluted in 10 mM sodium acetate (pH 4.5) was directly immobilized across a CM5 research grade biosensor chip using a standard amine coupling kit according to manufacturer's instructions and procedures at 25 μg/ml. Unreacted moieties on the biosensor surface were blocked with ethanolamine. Modified carboxymethyl dextran surface in flowcell 2 and 4 was used as a reaction surface. Unmodified carboxymethyl dextran without goat anti-mouse IgG in flow cell 1 and 3 was used as the reference surface. For kinetic analysis, rate equations derived from the 1:1 Langmuir binding model were fitted simultaneously to association and dissociation phases of all eight injections (using global fit analysis) with the use of Biaevaluation 4.0.1 software. Purified antibodies were diluted in HEPES-buffered saline for capture across goat anti-mouse IgG specific reaction surfaces. Mouse antibodies to be captured as a ligand (25 μg/ml) were injected over reaction matrices at a flow rate of 5 μl/min. The association and dissociation rate constants, kₒₙ (unit M⁻¹ s⁻¹) and koff (unit s⁻¹) were determined under a continuous flow rate of 25 μl/min. Rate constants were derived by making kinetic binding measurements at ten different antigen concentrations ranging from 10-200 nM. The equilibrium dissociation constant (unit M) of the reaction between mouse antibodies and recombinant purified human IL-12 p70 or recombinant purified human IL-12 p40 was then calculated from the kinetic rate constants by the following formula: KD=koff/kₒₙ. Binding is recorded as a function of time and kinetic rate constants are calculated.
For orientation: In SPR one partner is held on a chip, and binding of the other changes the refractive index at the surface.

The target is the same in experiment [6]. The experiment can be described thus: cell-based or functional assay. The source holds these as a separate data set.
For experiment [7] the target is unchanged. Nature of the experiment: SPR (BIAcore) as in Example 1.1.B, human IL-12p70. The protocol:
as §1, with “Approximately” for “The BIACORE assay (Biacore, Inc, Piscataway, N.J.) determines the affinity of antibodies with kinetic measurements of on-, off-rate constants. Binding of antibodies to recombinant purified human IL-12 p70 or recombinant purified human IL-12 p40 were determined by surface plasmon resonance-based measurements with a Biacore® 3000 instrument (Biacore® AB, Uppsala, Sweden) using running HBS-EP (10 mM HEPES [pH 7.4], 150 mM NaCl, 3 mM EDTA, and 0.005% surfactant P20) at 25° C. All chemicals were obtained from Biacore® AB (Uppsala, Sweden) or otherwise from a different source as described in the text. Approximately”, “calculated. In this assay, on-rates as fast as 10⁶M⁻¹ s⁻¹ and off-rates as slow as 10⁻⁶ can be measured. […]” for “calculated.”

Where two headings read alike, the source gives them in different places.

B1: chimeric anti-human IL-12p40 antibody 1D4-Chim (antibody, human IgG1, kappa, L234A L235A, V domains shown)
VH: QVTLKESGPGILQPSQTLSLTCSFSGFSLRKSVMGVSWIRQPSGKGLEWLAHIYWDDDKYYNPSLKSRLTISKDPSRNQVFLKITSVDTADAATYYCTRRGIRSAMDYWGQGTSVTVSS
VL: SVVMTQTPKFLLVSAGDRVTITCKASQSVSNDVAWYQQKPGQSPKLLIYYASNRYTGVPDRFTGSGYGTDFTFIISTVRAEDLAVYFCQQDYNSPWTFGGGTKLEIKR
For the molecule B1, the “Average IC50 (nM) Human IL-12, PHA blast IFN-γ assay” value in experiment [1] came to 0.021 nM. Further, the “Average IC50 (nM) Cyno IL-12, PHA blast IFN-γ assay” value in experiment [2] turned out to be 0.07 nM.

B2: chimeric anti-human IL-12p40 antibody 1A6-Chim (antibody, human IgG1, kappa, L234A L235A, V domains shown)
VH: QVTLKESGPGILKPSQTLSLTCSFSGFSLSTSGMGVSWIRQPSGKGLEWLAHIWWDGDNYYNPSLKSQLTISKDTSRNQVFLRIATVDTADTATYYCARRTRVNYAMDYWGQGTSVTVSS
VL: SVVMTQTPKFLLVSAGDRVTITCKASQSVSNDVAWFQQKPGQSPKLLIYYASNRYTGVPDRFTGSGYGTDFTFTISTVQAEDLAVYFCQQDYNSPWTFGGGTKLEIKR
In the case of B2, in experiment [1], the “Average IC50 (nM) Human IL-12, PHA blast IFN-γ assay” value turned out to be 0.021 nM. In addition, the “Average IC50 (nM) Cyno IL-12, PHA blast IFN-γ assay” value in experiment [2] stood at 0.02 nM.

B3: chimeric anti-human IL-12p40 antibody 3G7-Chim (antibody, human IgG1, kappa, L234A L235A, V domains shown)
VH: QVQLQQSGAELMKPGASVKISCKATGYTFNDYWIEWVKQRPGHGLEWIGGFSHGSGSTNYNEKFKGKATFTADSSSNTAYMQLSSLTSEDSAVYYCARRRFRGMDYWGQGTSVTVSS
VL: SIVMTQTPKFLLVSAGDRVTITCKASQSVSNDVAWYQQKPGQSPKLLIYYASNRYTGVPDRFTGSGYGTDFTFTITTVQAEDLAVYFCQQDYSSPWSFGGGTKLEIKR
For the molecule B3, in experiment [1], the “Average IC50 (nM) Human IL-12, PHA blast IFN-γ assay” value was 0.12 nM. The “Average IC50 (nM) Cyno IL-12, PHA blast IFN-γ assay” value in experiment [2] stood at 0.32 nM.

B4: chimeric antibody 3G7/1D4-Chim (chimeric 3G7 heavy chain with 1D4 chimeric light chain) (antibody, human IgG1, kappa, L234A L235A, V domains shown)
VH: QVQLQQSGAELMKPGASVKISCKATGYTFNDYWIEWVKQRPGHGLEWIGGFSHGSGSTNYNEKFKGKATFTADSSSNTAYMQLSSLTSEDSAVYYCARRRFRGMDYWGQGTSVTVSS
VL: SVVMTQTPKFLLVSAGDRVTITCKASQSVSNDVAWYQQKPGQSPKLLIYYASNRYTGVPDRFTGSGYGTDFTFIISTVRAEDLAVYFCQQDYNSPWTFGGGTKLEIKR
Consider B4, for which the “Average IC50 (nM) Human IL-12, PHA blast IFN-γ assay” value in experiment [1] came to 0.11 nM. In addition, in experiment [2], the “Average IC50 (nM) Cyno IL-12, PHA blast IFN-γ assay” value stood at 0.29 nM.

B5: anti-IL-12p40 hybrid antibody 1A6.4 (antibody, human IgG1, kappa, L234A L235A, V domains shown)
VH: QVTLKESGPGILKPSQTLSLTCSFSGFSLSTSGMGVSWIRQPSGKGLEWLAHIWWDGDNYYNPSLKSQLTISKDTSRNQVFLRIATVDTADTATYYCARRTRVNYAMDYWGQGTSVTVSS
VL: EIVMTQSPATLSVSPGERATLSCKASQSVSNDVAWYQQKPGQAPRLLIYYASNRYTGIPARFSGSGSGTEFTLTISSLQSEDFAVYYCQQDYNSPWTFGGGTKVEIKR
notes: Hybrid: chimeric murine H chain paired with CDR-grafted L chain
The term Kd denotes the free concentration of one partner at which half of the binding sites on the other are occupied at equilibrium, for simple one-to-one binding. As a reminder, the koff is the rate constant with which the complex falls apart. In general, kon refers to the rate constant with which the complex forms. In the case of B5, the “Av. IC50 (nM) huIL-12, PHA blast assay” value in experiment [3] is 2.1 nM. In experiment [4], the “Av. IC50 (nM) Cyno IL-12, PHA blast assay” value turned out to be 1.2 nM. Besides, in experiment [5], the dissociation constant Kd came to 1 nM, the dissociation rate constant (koff) came to 0.00011 s⁻¹ and the on-rate constant (kon) turned out to be 110000 M⁻¹ s⁻¹.

B6: anti-IL-12p40 humanized antibody 1D4.6 (antibody, human IgG1, kappa, L234A L235A, V domains shown)
VH: EVTLRESGPALVKPTQTLTLTCTFSGFSLSKSVMGVSWIRQPPGKALEWLAHIYWDDDKYYNPSLKSRLTISKDTSKNQVVLTMTNMDPVDTATYYCTRRGIRSAMDYWGQGTTVTVSS
VL: DVVMTQSPDSLAVSLGERATINCKASQSVSNDVAWYQQKPGQPPKLLIYYASNRYTGVPDRFSGSGYGTDFTLTISSLQAEDVAVYYCQQDYNSPWTFGGGTKVEIKR
notes: COS cells
With B6, in experiment [6], the “Av. IC50 (nM) huIL-12, PHA blast assay” value was 0.15 nM. Also, in experiment [7], the Kd was less than 0.01 nM, the koff was less than 1e-05 s⁻¹ and the kon came out at 480000 M⁻¹ s⁻¹.

B7: anti-IL-12p40 humanized antibody 1D4.8 (antibody, human IgG1, kappa, L234A L235A, V domains shown)
VH: EVTLRESGPALVKPTQTLTLTCTFSGFSLRKSVMGVSWIRQPPGKALEWLAHIYWDDDKYYNPSLKSRLTISKDTSKNQVVLTMTNMDPVDTATYYCTRRGIRSAMDYWGQGTTVTVSS
VL: DIVMTQSPDSLAVSLGERATINCKASQSVSNDVAWYQQKPGQPPKLLIYYASNRYTGVPDRFSGSGSGTDFTLTISSLQAEDVAVYYCQQDYNSPWTFGGGTKVEIKR
notes: Back-mutated CDR-grafted antibody; COS cells
On to B7, for which, in experiment [6], the “Av. IC50 (nM) huIL-12, PHA blast assay” value stood at 0.095 nM. In addition, in experiment [7], the dissociation constant Kd was less than 0.01 nM, the koff is less than 1e-05 s⁻¹ and the kon was 120000 M⁻¹ s⁻¹.

B8: anti-IL-12p40 humanized antibody 1A6.9 (antibody, human IgG1, kappa, L234A L235A, V domains shown)
VH: EVTLRESGPALVKPTQTLTLTCTFSGFSLSTSGMGVSWIRQPPGKALEWLAHIWWDGDNYYNPSLKSRLTISKDTSKNQVVLTMTNMDPVDTATYYCARRTRVNYAMDYWGQGTTVTVSS
VL: SVVMTQSPDSLAVSLGERATINCKASQSVSNDVAWFQQKPGQPPKLLIYYASNRYTGVPDRFSGSGYGTDFTLTISSLQAEDVAVYYCQQDYNSPWTFGGGTKVEIKR
notes: as for B7
B8: the “Av. IC50 (nM) huIL-12, PHA blast assay” value in experiment [6] was found to be 0.15 nM. Further, in experiment [7], the Kd is less than 0.01 nM, the off-rate constant (koff) was less than 1e-05 s⁻¹ and the kon was 350000 M⁻¹ s⁻¹.

B9: chimeric anti-human IL-12p40 antibody 8E1-Chim (antibody, human IgG1, kappa, L234A L235A, V domains shown)
VH: EVKLVESGGGLVQPGGSRKLSCAASGFTFSDYGMVWVRQAPGKGLEWVASISSGSSNIYYADTVKGRFTISRDDPNNTLFLQMRSLRSEDTAMYYCARNPYWGQGTTLTVSS
VL: DIVMTQSQKFMSTSVGDRVSVTCKASQNVGTNVAWYQQKPGQSPKGLIYSASHRYSGVPDRFAGSGSGTDFTLTISNVQSEDLAEYFCQQYNSYPLTFGGGTKLELKR
With B9, the “Average IC50 (nM) Human IL-12, PHA blast IFN-γ assay” value in experiment [1] came to 0.17 nM. Further, the “Average IC50 (nM) Cyno IL-12, PHA blast IFN-γ assay” value in experiment [2] was determined as 0.15 nM.
